US20110044995A1 (KUMAMOTO UNIVERSITY, published 2011)

Tests used:
[1] = target: envelope of standard panel pseudotyped virus SVPB17 (HIV-1 subtype B); experiment: cell-based or functional assay
[2] = target: envelope of standard panel pseudotyped virus SVPB15 (HIV-1 subtype B); experiment: cell-based or functional assay
[3] = target: envelope of standard panel pseudotyped virus SVPB8 (HIV-1 subtype B); experiment: cell-based or functional assay
[4] = target: envelope of standard panel pseudotyped virus SVPB6 (HIV-1 subtype B); experiment: cell-based or functional assay
[5] = target: envelope of standard panel pseudotyped virus SVPB18 (HIV-1 subtype B); experiment: cell-based or functional assay
[6] = target: envelope of standard panel pseudotyped virus SVPB14 (HIV-1 subtype B); experiment: cell-based or functional assay
[7] = target: envelope of standard panel pseudotyped virus SVPB12 (HIV-1 subtype B); experiment: cell-based or functional assay
[8] = target: envelope of standard panel pseudotyped virus SVPB5 (HIV-1 subtype B); experiment: cell-based or functional assay
[9] = target: envelope of standard panel pseudotyped virus SVPB11 (HIV-1 subtype B); experiment: cell-based or functional assay
[10] = target: envelope of standard panel pseudotyped virus SVPB13 (HIV-1 subtype B); experiment: cell-based or functional assay
[11] = target: envelope of standard panel pseudotyped virus SVPB16 (HIV-1 subtype B); experiment: cell-based or functional assay
[12] = target: envelope of HIV-1 clinically isolated strain MTA; experiment: cell-based or functional assay; set-up: unit not given beside the values
[13] = target: envelope of HIV-1 clinically isolated strain YKI; experiment: cell-based or functional assay; set-up: unit not given beside the values
[14] = target: envelope of HIV-1 strain JR-FL (JRFLwt), on virus (HIV-1 strain JR-FL); experiment: cell-based or functional assay; set-up: unit not given beside the values
[15] = target: envelope of HIV-1 clinically isolated strain MIS; experiment: cell-based or functional assay; set-up: unit not given beside the values
[16] = target: envelope of HIV-1 strain IIIB (HIV-1 strain IIIB); experiment: cell-based or functional assay; set-up: unit not given beside the values
[17] = target: envelope of HIV-2 strain EHO (HIV-2 strain EHO); experiment: cell-based or functional assay; set-up: unit not given beside the values
[18] = target: envelope of HIV-1 clinically isolated strain KMT; experiment: cell-based or functional assay; set-up: unit not given beside the values
[19] = target: envelope of HIV-1 strain BaL (HIV-1 strain BaL); experiment: cell-based or functional assay; set-up: unit not given beside the values
[20] = target: envelope of HIV-1 strain YU2 (HIV-1 strain YU2, UniProt P35961 32-843); experiment: cell-based or functional assay; set-up: unit not given beside the values
[21] = target: envelope of HIV-1 clinically isolated strain YIS; experiment: cell-based or functional assay; set-up: unit not given beside the values
[22] = target: envelope of HIV-1 clinically isolated strain kKGO; experiment: cell-based or functional assay; set-up: unit not given beside the values
[23] = target: envelope of HIV-1 clinically isolated strain MOKW; experiment: cell-based or functional assay; set-up: unit not given beside the values
[24] = target: T1, envelope of HIV-2 strain ROD (HIV-2 strain ROD, UniProt P04577 20-858); experiment: cell-based or functional assay; set-up: unit not given beside the values
T1 sequence: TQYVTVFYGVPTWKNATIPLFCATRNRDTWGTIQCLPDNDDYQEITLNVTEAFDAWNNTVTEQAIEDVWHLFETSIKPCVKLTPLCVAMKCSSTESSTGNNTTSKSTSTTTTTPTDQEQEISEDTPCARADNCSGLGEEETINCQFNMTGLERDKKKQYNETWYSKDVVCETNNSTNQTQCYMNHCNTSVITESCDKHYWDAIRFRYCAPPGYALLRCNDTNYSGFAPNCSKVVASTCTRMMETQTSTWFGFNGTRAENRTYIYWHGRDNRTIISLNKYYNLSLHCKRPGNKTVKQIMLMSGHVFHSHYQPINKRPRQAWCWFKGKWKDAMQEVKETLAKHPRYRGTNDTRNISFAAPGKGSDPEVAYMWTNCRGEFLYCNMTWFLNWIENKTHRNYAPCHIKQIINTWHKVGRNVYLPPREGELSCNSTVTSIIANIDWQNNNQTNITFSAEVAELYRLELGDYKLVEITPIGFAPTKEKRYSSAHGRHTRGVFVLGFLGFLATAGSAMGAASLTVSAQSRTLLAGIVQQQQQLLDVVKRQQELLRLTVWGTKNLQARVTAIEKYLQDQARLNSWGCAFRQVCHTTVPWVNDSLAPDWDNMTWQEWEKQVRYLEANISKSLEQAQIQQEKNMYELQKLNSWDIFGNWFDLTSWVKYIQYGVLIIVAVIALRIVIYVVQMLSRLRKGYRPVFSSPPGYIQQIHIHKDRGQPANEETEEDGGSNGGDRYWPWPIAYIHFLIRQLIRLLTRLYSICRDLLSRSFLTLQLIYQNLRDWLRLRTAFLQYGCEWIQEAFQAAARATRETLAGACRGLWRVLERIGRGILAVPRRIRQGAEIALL

[25] = target: envelope of HIV-1 strain JRFLGPER; experiment: cell-based or functional assay; set-up: unit not given beside the values
[26] = target: envelope of HIV-1 clinically isolated strain TR43; experiment: cell-based or functional assay; set-up: unit not given beside the values
[27] = target: envelope of HIV-1 strain 89.6 (HIV-1 strain 89.6, UniProt Q73372 32-853); experiment: cell-based or functional assay; set-up: unit not given beside the values
[28] = target: envelope of HIV-1 strain SF162 (HIV-1 strain SF162, UniProt P19550 32-847); experiment: cell-based or functional assay; set-up: unit not given beside the values
[29] = target: T2, monomeric gp120 (gp120-SF2; Austral Biologicals) (HIV-1 strain SF2, UniProt P03378 32-509); experiment: gp120-capture ELISA with or without 0.5 µg/ml sCD4
T2 construct: domain: gp120; also called gp120 monomer

V3 peptide NNT20 = target: T3, V3 peptide NNT20 (HIV-1 strain JR-FL); experiment: V3-peptide ELISA, NNT20 coated at 5 µg/ml
T3 construct: Coated on the plate at 5 µg/ml
T3 peptide: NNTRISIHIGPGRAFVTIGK

B1: 5G2 (antibody, IgG1, V domains shown)
VH: EVQLVESGGGVVRPGNSLRLSCAASGIIFSTANLHWLRHVPGKGLEWVAIISYDGHRQYYADLVKGRFTISRDNSKNTLHLQMDGLTSDDTAVYYCAKDGADENNLGPAFDYWGRGTLVTVSS
VL: EIVLTQSPATLSVSPGEGATLSCRASQSISSNLAWYQQKPGQAPRLLIYGASTGATGIPARFSGSGSGTDFTLTISRLEPEDFAIYYCQQYGSLPITFGQGTRLEIKR
[1]
  IC50 in TZM-bl cells: 50 µg/mL
[2]
  IC50 in TZM-bl cells: > 50 µg/mL
[3]
  IC50 in TZM-bl cells: > 50 µg/mL
[4]
  IC50 in TZM-bl cells: > 50 µg/mL
[5]
  IC50 in TZM-bl cells: 11.5 µg/mL
[6]
  IC50 in TZM-bl cells: > 50 µg/mL
[7]
  IC50 in TZM-bl cells: > 50 µg/mL
[8]
  IC50 in TZM-bl cells: 10.1 µg/mL
[9]
  IC50 in TZM-bl cells: > 50 µg/mL
[10]
  IC50 in TZM-bl cells: > 50 µg/mL
[11]
  IC50 in TZM-bl cells: > 50 µg/mL
[12]
  IC50, neutralizing activity (MTT assay): 0.009
[13]
  IC50, neutralizing activity (MTT assay): 1
[14]
  IC50, neutralizing activity (MTT assay): 37
[15]
  IC50, neutralizing activity (MTT assay): > 50
[16]
  IC50, neutralizing activity (MTT assay): > 50
[17]
  IC50, neutralizing activity (MTT assay): > 50
[18]
  IC50, neutralizing activity (MTT assay): > 50
[19]
  IC50, neutralizing activity (MTT assay): 5.8
[20]
  IC50, neutralizing activity (MTT assay): > 50
[21]
  IC50, neutralizing activity (MTT assay): > 50
[22]
  IC50, neutralizing activity (MTT assay): > 50
[23]
  IC50, neutralizing activity (MTT assay): 0.012
[24]
  IC50, neutralizing activity (MTT assay): > 50
[25]
  IC50, neutralizing activity (MTT assay): > 50
[26]
  IC50, neutralizing activity (MTT assay): > 50
[27]
  IC50, neutralizing activity (MTT assay): 14
[28]
  IC50, neutralizing activity (MTT assay): 0.91
[29]
  binding result: binds
V3 peptide NNT20
  binding result: binds
